In patent publication US20200031919A1 (SUZHOU KANOVA BIOPHARMACEUTICAL, published 2020):
Numbering of substitutions follows the chain as printed. Like-named read-outs stand apart in the source and are kept apart here. Values belong to the binder of their own block, whether it stands above or below them.

Assays:
[1] = molecular target: T1, human IL-17A (human, UniProt Q16552 24-155); assay: ELISA, human IL-17A coated at 2 µg/ml
T1 construct: Commercial recombinant protein; also called hIL-17A; CTLA-8
T1 sequence (looked up): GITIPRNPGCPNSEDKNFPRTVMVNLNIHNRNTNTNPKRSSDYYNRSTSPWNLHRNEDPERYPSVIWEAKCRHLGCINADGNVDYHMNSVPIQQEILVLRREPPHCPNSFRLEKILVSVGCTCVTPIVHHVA
Method: (§1) MaxiSorp 96-well plates (NUNC # 449824, www.thermofisher.com) were coated with 2 μg/ml human IL-17A (Cell Signaling #89285F, www.cellsignal.com), human IL-17F (Cell Signaling #8906LC, www.cellsignal.com), human IL-17B (Peprotech #200-28, www.peprotech.com), human IL-17C (R&D systems #1234-IL-025/CF, www.rndsystems.com), human IL-17D ((Peprotech #200-27, www.peprotech.com), human IL-17E (R&D systems #1258-IL-025/CF, www.rndsystems.com) in 1× PBS (50 μl/well) respectively. Plates were incubated at 4° C. overnight. Coating solution was removed and plates were washed once with 200 μl/well PBST (1× PBS with 0.05% tween-20). Then 200 μl/well blocking buffer (1× PBS with 0.05% tween-20, 3% BSA) was added and incubated at room temperature for 1 hour. Blocking buffer was removed and plates were washed three times with 200 μl/well PBST (1× PBS with 0.05% tween-20). The anti-IL17A/F antibody, hIgG VH1-1/VL5, was diluted to 10, 3.33, 1.11, 0.37, 0.123, 0.041, 0.0137, 0.0046, 0.0015, 0.00031, 0.000102, 0.000034 μg/ml by 1× PBS and added to the plates (50 μl/well). Plates were incubated at room temperature for 2 hours. Antibodies in the wells were removed and plates were washed three times with 200 μl/well PBST (1× PBS with 0.05% tween-20). […] Plates were read at 450 nm. […]

[2] = molecular target: T2, human IL-17B (human, UniProt Q9UHF5 21-180); assay: ELISA, cytokine coated at 2 µg/ml
T2 construct: Commercial recombinant protein
T2 sequence (looked up): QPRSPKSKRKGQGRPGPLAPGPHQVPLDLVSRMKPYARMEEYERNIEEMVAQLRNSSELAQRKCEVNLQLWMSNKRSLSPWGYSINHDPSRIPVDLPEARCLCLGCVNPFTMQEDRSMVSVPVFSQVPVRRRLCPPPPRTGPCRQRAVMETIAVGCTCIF
Method: (§2) MaxiSorp 96-well plates (NUNC # 449824, www.thermofisher.com) were coated with 2 μg/ml human IL-17A (Cell Signaling #89285F, www.cellsignal.com), human IL-17F (Cell Signaling #8906LC, www.cellsignal.com), human IL-17B (Peprotech #200-28, www.peprotech.com), human IL-17C (R&D systems #1234-IL-025/CF, www.rndsystems.com), human IL-17D ((Peprotech #200-27, www.peprotech.com), human IL-17E (R&D systems #1258-IL-025/CF, www.rndsystems.com) in 1× PBS (50 μl/well) respectively. Plates were incubated at 4° C. overnight. Coating solution was removed and plates were washed once with 200 μl/well PBST (1× PBS with 0.05% tween-20). Then 200 μl/well blocking buffer (1× PBS with 0.05% tween-20, 3% BSA) was added and incubated at room temperature for 1 hour. Blocking buffer was removed and plates were washed three times with 200 μl/well PBST (1× PBS with 0.05% tween-20). The anti-IL17A/F antibody, hIgG VH1-1/VL5, was diluted to […], 0.000102, 0.000034 μg/ml by 1× PBS and added to the plates (50 μl/well). Plates were incubated at room temperature for 2 hours. Antibodies in the wells were removed and plates were washed three times with 200 μl/well PBST (1× PBS with 0.05% tween-20). Goat anti-human IgG(H&L)—HRP secondary antibody (Jackson Immuno Research #109-035-088, www.jacksonimmuno.com) was diluted 1:5000 in 1× PBS and added to each well (50 μl/well). Plates were incubated at room temperature for 1 hour. Secondary antibody was removed and plates were washed seven times with 200 μl/well PBST (1× PBS with 0.05% tween-20). 50 μl/well TMB (eBioscience # 85-00-4201-56, www.ebioscience.com) was added and plates were incubated at room temperature for several minutes. Then 50 μl/well 2N H₂SO₄ was added to stop the reaction. Plates were read at 450 nm. […] So, the hIgG VH1-1/VL5 antibody has binding specificity to human IL-17A and 17F and has no cross-reactivity to other IL-17 family members.

[3] = molecular target: T3, human IL-17E (human, UniProt Q9H293 33-177); assay: ELISA, cytokine coated at 2 µg/ml
T3 construct: Commercial recombinant protein; also called IL-25
T3 sequence (looked up): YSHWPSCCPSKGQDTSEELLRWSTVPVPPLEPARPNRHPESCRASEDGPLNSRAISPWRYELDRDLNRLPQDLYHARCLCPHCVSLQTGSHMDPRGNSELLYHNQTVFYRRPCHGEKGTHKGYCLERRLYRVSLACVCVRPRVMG
Method: as §2

[4] = molecular target: T4, human IL-17D (human, UniProt Q8TAD2 18-202, limits assumed); assay: ELISA, cytokine coated at 2 µg/ml
T4 construct: Commercial recombinant protein
T4 sequence (looked up): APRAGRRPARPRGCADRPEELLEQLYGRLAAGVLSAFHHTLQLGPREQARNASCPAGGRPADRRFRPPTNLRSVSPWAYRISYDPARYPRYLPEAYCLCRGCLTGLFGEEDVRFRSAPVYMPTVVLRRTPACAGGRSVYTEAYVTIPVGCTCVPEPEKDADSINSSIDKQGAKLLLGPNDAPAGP
Method: as §2

[5] = molecular target: T5, human IL-17C (human, UniProt Q9P0M4 19-197); assay: ELISA, cytokine coated at 2 µg/ml
T5 construct: Commercial recombinant protein
T5 sequence (looked up): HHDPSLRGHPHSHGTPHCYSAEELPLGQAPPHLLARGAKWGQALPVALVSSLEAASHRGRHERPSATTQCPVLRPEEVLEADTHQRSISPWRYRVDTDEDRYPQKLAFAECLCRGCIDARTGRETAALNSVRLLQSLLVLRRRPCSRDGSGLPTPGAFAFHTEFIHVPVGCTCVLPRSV
Method: as §2

[6] = molecular target: T6, IL-17A/F heterodimer (UniProt Q16552 24-155; Q96PD4 31-163, limits assumed); assay: blocking ELISA: 0.5 ug/ml hIL-17A/F heterodimer coated, antibody titrated, then 10 ug/ml hIL17RA-mIgG2aFc (blocked ligand partner); OD450 falls from about 1.9 to a lower plateau of about 0.6
T6 construct: Commercial heterodimer
T6 sequence (looked up) 1: T1 sequence (looked up)
T6 sequence (looked up) 2: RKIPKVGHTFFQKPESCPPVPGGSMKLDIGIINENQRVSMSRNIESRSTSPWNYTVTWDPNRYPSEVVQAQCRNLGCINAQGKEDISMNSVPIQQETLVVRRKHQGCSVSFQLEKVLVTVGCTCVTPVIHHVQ
Method: (§3) The effect of the anti-IL17A/F antibody (produced in Example 2) on the binding of IL-17A, IL-17F or IL17A/F to the IL-17 receptor was tested by ELISA. IL-17A, IL-17F or IL-17A/F was coated in 96 well plate with 50 μl/well protein solution (protein concentration was […]) at 4° C. overnight. The wells were blocked with 1% BSA in PBST (tween 0.05%) by 200 μl/well at room temperature for 1 hour. The wells were washed 3 times with PBST. The anti-IL17A/F antibody and isotype control antibody human IgG1 (Biolegend cat# 403102) were diluted by PBS from 30 μg/ml down to 0.0005 μg/ml ([…]). The antibodies were added into the corresponding wells (50 μl/well) and incubated at room temperature for 4 hours. The wells were washed 3 times with PBST. hIL17RA-mIgG2aFc (10 μg/ml, in-house production according to standard molecular biology technology, Carson S, Molecular Biology Techniques, 2012) were added into each well (50 μl/well) and incubated at room temperature for 1 hour. The wells were washed 3 times with PBST. Goat anti-human IgG-HRP (1:5000 in PBS, EASYBIO Cat# BE0102) were added into each well (50 μl/well) and incubated at room temperature for 30 min. The wells were washed 6 times with PBST. […] The plate was read at 450 nm and 570 nm.

[7] = molecular target: T7, cynomolgus IL-17A (cynomolgus, UniProt A0A2K5TTB0 24-155); assay: ELISA, cynomolgus IL-17A coated at 2 µg/ml
T7 sequence: T1 sequence (looked up) with T3A, P8S, N34S, I77V, N78K, P104R
Method: (§4) Human IgG1 (hIgG1) was used as a control antibody. EC50 values were calculated by GraphPad Prism.
(§5) The binding of anti-IL-17A/F antibody to cynomolgus IL-17A and IL-17F was determined by ELISA. Assay was performed in the same method of Example 7, except that cynomolgus IL-17A (Gene ID: XM 005552759.2, in-house production according to standard molecular biology method, Carson S, Molecular Biology Techniques, 2012) and IL-17F (Gene ID: XM_005552757.2, in-house production according to standard molecular biology method, Carson S, Molecular Biology Techniques, 2012) were used to replace human IL-17A and F, respectively.

[8] = molecular target: T8, human IL-17F (human, UniProt Q96PD4 31-163); assay: blocking ELISA: 0.5 ug/ml hIL-17F coated, antibody titrated, then 10 ug/ml hIL17RA-mIgG2aFc (blocked ligand partner); OD450 falls from about 1.35 to a lower plateau of about 0.87
T8 construct: Commercial recombinant protein; also called hIL-17F
T8 sequence (looked up): T6 sequence (looked up) 2
Method: as §3

[9] = molecular target: T9, cynomolgus IL-17F (cynomolgus, UniProt G7P4V0 31-163); assay: ELISA, cynomolgus IL-17F coated at 2 µg/ml
T9 construct: also called cynomolgus 17F
T9 sequence: T6 sequence (looked up) 2 with G22E, I29T, R73K, N74H, V100L, I129V
Method: as §4, §5

[10] = molecular target: T1, human IL-17A; assay: ELISA, human IL-17A coated at 2 µg/ml; remark: listed apart in the source
Method: as §1

[11] = molecular target: T8, human IL-17F; assay: ELISA, human IL-17F coated at 2 µg/ml
Method: as §1

[12] = molecular target: T8, human IL-17F; assay: ELISA, human IL-17F coated at 2 µg/ml; remark: listed apart in the source
Method: as §1

[13] = molecular target: T1, human IL-17A; assay: blocking ELISA: 0.5 ug/ml hIL-17A coated, antibody titrated, then 10 ug/ml hIL17RA-mIgG2aFc (blocked ligand partner); OD450 falls from about 1.3 to a lower plateau of about 0.67
Method: as §3

[14] = molecular target: T1, human IL-17A; assay: SPR (Biacore T200), antibody captured by anti-human Fc, IL-17 as analyte
Method: Anti-human Fc gamma specific antibody (Jackson Immuno Research, Lot no. 124448, Code. 109-008-098) was immobilized onto the sensor chip using amine coupling method. Four antibodies secreted to the culture medium plus the parental antibody were injected and captured by anti-human Fc antibody via Fc (capture phase) individually. After equilibration, IL-17 was injected for 300 seconds (association phase) followed by the injection of running buffer for 1200s (dissociation phase). Responses of reference flow cell (flow cell 1) were subtracted from those of humanized antibodies flow cells during each cycle. The surface was regenerated before the injection of another humanized antibody. The process was repeated until all antibodies are analyzed. The off-rates of humanized antibodies were obtained from fitting the experimental data locally to 1:1 interaction model using the Biacore T200 evaluation software. The antibodies were ranked by their dissociation rate constants (off-rates, Kd). The binders that interact with IL-17 with similar affinity to parental antibody were selected.

[15] = molecular target: T8, human IL-17F; assay: cell-based or functional assay
[16] = molecular target: T1, human IL-17A; assay: cell-based or functional assay
[17] = molecular target: T6, IL-17A/F heterodimer; assay: cell-based or functional assay

- EC50 [1]: 46 pM
- binding result [2]: no binding
- binding result [3]: no binding
- binding result [4]: no binding
- binding result [5]: no binding
- IC50 [6]: 450 pM
- EC50 [7]: 60 pM
- IC50 [8]: 670 pM
- EC50 [9]: 180 pM
- EC50 [10]: 39 pM
- EC50 [11]: 42 pM
- EC50 [12]: 47 pM
- IC50 [13]: 720 pM
- Kd [14]: 290 pM
- koff [14]: 0.00059 s⁻¹
- kon [14]: 2e+06 M⁻¹ s⁻¹
- IC50 of inhibition of IL-17F-induced IL-6 production in HFF-1 cells [15]: 1770 pM
- IC50 of inhibition of IL-17A-induced IL-6 production in HFF-1 cells [16]: 1730 pM
- IC50 of inhibition of IL-17A/F heterodimer-induced IL-6 production in HFF-1 cells [17]: 990 pM
B1: anti-IL17A/F antibody hIgG VH1-1/VL5 (antibody, V domains shown)
VH: QFQLVQSGAEVKKPGASVKVSCKASGYTFTDYNLNWVRQAPGKGLEWMGVIHPDYGTTSYNQKFKDRVTMTVDTSTSTVYMELSSLRSEDTAVYYCVRYDYGDAMDYWGQGTLVTVSS
VL: DIVMTQSPLSLSVTPGQPASISCRSSQSLVHSNGNTYLHWYLQKPGQPPQLLIYKVSNRFSGVPDRFSGSGSGTDFTLKISRVEAEDVGVYYCSQSTHVPLTFGQGTKLEIKR
notes: also called VH1-1/VL5 mAb; hIgGc VH1-1/VL5

- Kd [14]: 840 pM
- koff [14]: 0.0018 s⁻¹
- kon [14]: 2.2e+06 M⁻¹ s⁻¹
B2: humanized anti-IL17A/F antibody VH1-1/VL2-1 (antibody, V domains shown)
VH: B1 VH
VL: DIVMTQTPLSSSVTLGQPASISCRSSQSLVHSNGNTYLHWLQQRPGQPPRLLIYKVSNRFSGVPDRFSGSGAGTDFTLKISRVEAEDVGVYYCSQSTHVPLTFGQGTKLEIK
notes: It was tested as a humanized IgG captured through its Fc by an anti-human Fc antibody
